This note sets out measurements from article PMC4570711.

The test deals with human TrkA receptor (human) (UniProt P04629).
Sequence of UniProt P04629 (P04629 33-796): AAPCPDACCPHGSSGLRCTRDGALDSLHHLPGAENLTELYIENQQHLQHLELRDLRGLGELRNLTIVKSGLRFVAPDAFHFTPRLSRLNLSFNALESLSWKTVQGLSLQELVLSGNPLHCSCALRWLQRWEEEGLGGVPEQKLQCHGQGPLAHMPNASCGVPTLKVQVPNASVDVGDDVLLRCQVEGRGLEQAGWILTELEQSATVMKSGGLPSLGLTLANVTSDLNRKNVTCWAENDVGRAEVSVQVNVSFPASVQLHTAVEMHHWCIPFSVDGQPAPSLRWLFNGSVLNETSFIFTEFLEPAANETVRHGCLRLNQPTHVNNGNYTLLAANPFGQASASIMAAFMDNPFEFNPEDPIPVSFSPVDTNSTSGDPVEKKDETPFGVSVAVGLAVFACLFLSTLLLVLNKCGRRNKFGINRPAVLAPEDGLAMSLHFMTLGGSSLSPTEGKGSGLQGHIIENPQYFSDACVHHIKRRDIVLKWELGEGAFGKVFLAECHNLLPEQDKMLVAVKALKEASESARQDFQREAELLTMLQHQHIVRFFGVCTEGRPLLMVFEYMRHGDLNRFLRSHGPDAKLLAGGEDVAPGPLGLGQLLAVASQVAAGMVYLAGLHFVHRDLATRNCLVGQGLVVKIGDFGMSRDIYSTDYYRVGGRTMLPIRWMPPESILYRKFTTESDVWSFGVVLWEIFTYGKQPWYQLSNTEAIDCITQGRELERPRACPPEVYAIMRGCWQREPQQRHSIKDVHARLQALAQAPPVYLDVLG

For the substance “human Nerve Growth Factor P61S R100E double mutant (ligand)”, the TF1 cell proliferation, C50 (concentration of hNGF giving half of the maximum effect; 0.1–200 ng/ml) was 8.1 ng/mL.
“human Nerve Growth Factor P61S mutant (ligand)”: the TF1 cell proliferation, C50 (concentration of hNGF giving half of the maximum effect; 0.1–200 ng/ml) came out at 4.3 ng/mL.
“human Nerve Growth Factor R100E mutant ("painless" hNGF) (from UniProt P01138 122-241) (ligand)” gave a TF1 cell proliferation, C50 (concentration of hNGF giving half of the maximum effect; 0.1–200 ng/ml) of 10.9 ng/mL.
